The values below come from the Human Domainome abundance scans (Beltran et al. 2025).

± gives the uncertainty stated by the source.

To fix the notation:
B1: RNA-binding E3 ubiquitin-protein ligase MEX3C, residues 325 to 391; numbered along this chain, Q5U5Q3 (parent)
chain: GQTTVQVRVPYRVVGLVVGPKGATIKRIQQQTHTYIVTPSRDKEPVFEVTGMPENVDRAREEIEMHI

This series covers variants of B1. Description: abundance fitness (aPCA) (normalised: wild type 0, dead -1); higher = more abundant; growth selection in yeast, the domain comes from the species named. The note with it: Homo sapiens.
In the case of GQTTVQVRVPYRVVGNVVGPKGATIKRIQQQTHTYIVTPSRDKEPVFEVTGMPENVDRAREEIEMHI [L16N], the abundance fitness was -0.312 ± 0.14.
GQTTVQVRVPYRVVGHVVGPKGATIKRIQQQTHTYIVTPSRDKEPVFEVTGMPENVDRAREEIEMHI [L16H]: the abundance fitness is -0.047 ± 0.086.
The figure for GQTTVQVRVPYRVVGDVVGPKGATIKRIQQQTHTYIVTPSRDKEPVFEVTGMPENVDRAREEIEMHI [L16D] is -0.058 ± 0.072; for GQTTVQVRVPYRVVGAVVGPKGATIKRIQQQTHTYIVTPSRDKEPVFEVTGMPENVDRAREEIEMHI [L16A] it is -0.052 ± 0.059.
The figure for GQTTVQVRVPYRVVGVVVGPKGATIKRIQQQTHTYIVTPSRDKEPVFEVTGMPENVDRAREEIEMHI [L16V] is -0.353 ± 0.058; for GQTTVQVRVPYRVVGRVVGPKGATIKRIQQQTHTYIVTPSRDKEPVFEVTGMPENVDRAREEIEMHI [L16R] it is 0.075 ± 0.045.
The figure for GQTTVQVRVPYRVVGPVVGPKGATIKRIQQQTHTYIVTPSRDKEPVFEVTGMPENVDRAREEIEMHI [L16P] is -0.615 ± 0.14; for GQTTVQVRVPYRVVGCVVGPKGATIKRIQQQTHTYIVTPSRDKEPVFEVTGMPENVDRAREEIEMHI [L16C] it is -0.213 ± 0.087.
Regarding GQTTVQVRVPYRVVGIVVGPKGATIKRIQQQTHTYIVTPSRDKEPVFEVTGMPENVDRAREEIEMHI [L16I], the abundance fitness is -0.174 ± 0.12.
As for GQTTVQVRVPYRVVGYVVGPKGATIKRIQQQTHTYIVTPSRDKEPVFEVTGMPENVDRAREEIEMHI [L16Y], the figure is -0.228 ± 0.13; as for GQTTVQVRVPYRVVGQVVGPKGATIKRIQQQTHTYIVTPSRDKEPVFEVTGMPENVDRAREEIEMHI [L16Q], 0.034 ± 0.073; as for GQTTVQVRVPYRVVGWVVGPKGATIKRIQQQTHTYIVTPSRDKEPVFEVTGMPENVDRAREEIEMHI [L16W], -0.122 ± 0.07.
As for GQTTVQVRVPYRVVGMVVGPKGATIKRIQQQTHTYIVTPSRDKEPVFEVTGMPENVDRAREEIEMHI [L16M], the figure is 0.316 ± 0.1; as for GQTTVQVRVPYRVVGGVVGPKGATIKRIQQQTHTYIVTPSRDKEPVFEVTGMPENVDRAREEIEMHI [L16G], -0.506 ± 0.064.
For GQTTVQVRVPYRVVGTVVGPKGATIKRIQQQTHTYIVTPSRDKEPVFEVTGMPENVDRAREEIEMHI [L16T], the abundance fitness was -0.095 ± 0.07.
Consider GQTTVQVRVPYRVVGEVVGPKGATIKRIQQQTHTYIVTPSRDKEPVFEVTGMPENVDRAREEIEMHI [L16E], for which the abundance fitness is -0.133 ± 0.065.
The figure for GQTTVQVRVPYRVVGKVVGPKGATIKRIQQQTHTYIVTPSRDKEPVFEVTGMPENVDRAREEIEMHI [L16K] is -0.192 ± 0.089.
As for GQTTVQVRVPYRVVGFVVGPKGATIKRIQQQTHTYIVTPSRDKEPVFEVTGMPENVDRAREEIEMHI [L16F], the figure is -0.139 ± 0.14; as for GQTTVQVRVPYRVVILVVGPKGATIKRIQQQTHTYIVTPSRDKEPVFEVTGMPENVDRAREEIEMHI [G15I], -0.872 ± 0.42.
GQTTVQVRVPYRVVELVVGPKGATIKRIQQQTHTYIVTPSRDKEPVFEVTGMPENVDRAREEIEMHI [G15E]: the abundance fitness was -0.121 ± 0.068.
As for GQTTVQVRVPYRVVCLVVGPKGATIKRIQQQTHTYIVTPSRDKEPVFEVTGMPENVDRAREEIEMHI [G15C], the figure is -0.59 ± 0.19; as for GQTTVQVRVPYRVVRLVVGPKGATIKRIQQQTHTYIVTPSRDKEPVFEVTGMPENVDRAREEIEMHI [G15R], -0.212 ± 0.052.
On to GQTTVQVRVPYRVVHLVVGPKGATIKRIQQQTHTYIVTPSRDKEPVFEVTGMPENVDRAREEIEMHI [G15H], for which the abundance fitness is -0.059 ± 0.086.
For GQTTVQVRVPYRVVPLVVGPKGATIKRIQQQTHTYIVTPSRDKEPVFEVTGMPENVDRAREEIEMHI [G15P], the abundance fitness was -0.093 ± 0.077.
The figure for GQTTVQVRVPYRVVALVVGPKGATIKRIQQQTHTYIVTPSRDKEPVFEVTGMPENVDRAREEIEMHI [G15A] is -0.067 ± 0.051; for GQTTVQVRVPYRVVNLVVGPKGATIKRIQQQTHTYIVTPSRDKEPVFEVTGMPENVDRAREEIEMHI [G15N] it is -0.234 ± 0.17; for GQTTVQVRVPYRVVYLVVGPKGATIKRIQQQTHTYIVTPSRDKEPVFEVTGMPENVDRAREEIEMHI [G15Y] it is -0.691 ± 0.21.
On to GQTTVQVRVPYRVVKLVVGPKGATIKRIQQQTHTYIVTPSRDKEPVFEVTGMPENVDRAREEIEMHI [G15K], for which the abundance fitness was -0.235 ± 0.076.
In the case of GQTTVQVRVPYRVVSLVVGPKGATIKRIQQQTHTYIVTPSRDKEPVFEVTGMPENVDRAREEIEMHI [G15S], the abundance fitness is -0.128 ± 0.062.
The figure for GQTTVQVRVPYRVVWLVVGPKGATIKRIQQQTHTYIVTPSRDKEPVFEVTGMPENVDRAREEIEMHI [G15W] is -0.779 ± 0.14; for GQTTVQVRVPYRVVMLVVGPKGATIKRIQQQTHTYIVTPSRDKEPVFEVTGMPENVDRAREEIEMHI [G15M] it is -0.459 ± 0.12; for GQTTVQVRVPYRVVDLVVGPKGATIKRIQQQTHTYIVTPSRDKEPVFEVTGMPENVDRAREEIEMHI [G15D] it is 0.018 ± 0.077.
Take GQTTVQVRVPYRVVQLVVGPKGATIKRIQQQTHTYIVTPSRDKEPVFEVTGMPENVDRAREEIEMHI [G15Q]: the abundance fitness was -0.181 ± 0.087.
Turning to GQTTVQVRVPYRVVVLVVGPKGATIKRIQQQTHTYIVTPSRDKEPVFEVTGMPENVDRAREEIEMHI [G15V], the abundance fitness is -0.986 ± 0.14.
The figure for GQTTVQVRVPYRVVGLTVGPKGATIKRIQQQTHTYIVTPSRDKEPVFEVTGMPENVDRAREEIEMHI [V17T] is -0.524 ± 0.098; for GQTTVQVRVPYRVVGLRVGPKGATIKRIQQQTHTYIVTPSRDKEPVFEVTGMPENVDRAREEIEMHI [V17R] it is -0.751 ± 0.082.
As for GQTTVQVRVPYRVVGLLVGPKGATIKRIQQQTHTYIVTPSRDKEPVFEVTGMPENVDRAREEIEMHI [V17L], the figure is -0.415 ± 0.076; as for GQTTVQVRVPYRVVGLDVGPKGATIKRIQQQTHTYIVTPSRDKEPVFEVTGMPENVDRAREEIEMHI [V17D], -0.702 ± 0.14; as for GQTTVQVRVPYRVVGLFVGPKGATIKRIQQQTHTYIVTPSRDKEPVFEVTGMPENVDRAREEIEMHI [V17F], -0.711 ± 0.17.
As for GQTTVQVRVPYRVVGLSVGPKGATIKRIQQQTHTYIVTPSRDKEPVFEVTGMPENVDRAREEIEMHI [V17S], the figure is -0.872 ± 0.11.
